# Tests used:
# [1] = biological target: Recombinant PSMA-His (sino biologicals) (UniProt Q04609); test: SPR, Biacore T200, pH 6; antibody captured on Protein A chip, PSMA-His as analyte, 1:1 Langmuir fit
# [2] = biological target: Recombinant PSMA-His (sino biologicals) (UniProt Q04609); test: SPR, Biacore T200, pH 7; antibody captured on Protein A chip, PSMA-His as analyte, 1:1 Langmuir fit
# [3] = biological target: Recombinant PSMA-His (sino biologicals) (UniProt Q04609); test: SPR, Biacore T200, pH 6.5; antibody captured on Protein A chip, PSMA-His as analyte, 1:1 Langmuir fit
# [4] = biological target: Recombinant PSMA-His (sino biologicals) (UniProt Q04609); test: SPR, Biacore T200, pH 7.4; antibody captured on Protein A chip, PSMA-His as analyte, 1:1 Langmuir fit
# Recombinant PSMA-His (sino biologicals), sequence (Q04609 44-750 limits assumed): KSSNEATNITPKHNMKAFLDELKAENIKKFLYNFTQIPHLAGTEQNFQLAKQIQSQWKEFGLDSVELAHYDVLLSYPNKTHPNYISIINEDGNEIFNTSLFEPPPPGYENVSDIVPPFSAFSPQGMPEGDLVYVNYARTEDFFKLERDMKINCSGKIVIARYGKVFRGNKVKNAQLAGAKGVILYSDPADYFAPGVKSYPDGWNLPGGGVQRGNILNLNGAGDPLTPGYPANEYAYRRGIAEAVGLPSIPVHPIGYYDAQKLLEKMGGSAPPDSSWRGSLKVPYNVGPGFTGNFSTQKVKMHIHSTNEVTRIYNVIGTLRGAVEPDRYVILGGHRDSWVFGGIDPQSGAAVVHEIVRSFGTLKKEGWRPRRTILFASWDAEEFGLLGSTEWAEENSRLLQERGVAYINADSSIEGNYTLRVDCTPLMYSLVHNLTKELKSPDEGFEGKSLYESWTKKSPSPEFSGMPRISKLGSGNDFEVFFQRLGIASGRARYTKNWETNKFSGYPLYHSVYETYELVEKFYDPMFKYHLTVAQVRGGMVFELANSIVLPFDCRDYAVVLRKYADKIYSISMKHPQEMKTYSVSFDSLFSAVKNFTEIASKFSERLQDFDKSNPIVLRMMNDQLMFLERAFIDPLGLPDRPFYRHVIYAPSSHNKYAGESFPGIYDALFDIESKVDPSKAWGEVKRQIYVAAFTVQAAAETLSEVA
substance,measurement,setting,value
Anti-PSMA antibody J591 (UPenn),Kd,[1],0.551 nM
same,Kd,[2],2.54 nM
same,Kd,[3],0.984 nM
same,Kd,[4],2.76 nM
